This assay deals with sulfite reductase tagged with a C-terminal GFP S11 (SEQ ID NO: 16). As to the kind of experiment: cell-based or functional assay.

Regarding “Split-CFP S1-10 (Y66W, H148D, T205S) (from UniProt P42212 1-214)”, the Final Fluorescence (Ident. D1) turned out to be 8860, the Final Fluorescence (Ident. D4) turned out to be 3740, the Final Fluorescence (Ident. D6) was 4100 and the Final Fluorescence (Ident. D8) was 3750. The substance also had a Final Fluorescence (Ident. E4) of 3280, a Final Fluorescence (Ident. F8) of 1310, a Final Fluorescence (Ident. H2) of 6570 and an Initial Rate (Ident. D1) of 14500. This substance also showed an Initial Rate (Ident. D4) of 7990, an Initial Rate (Ident. D6) of 10000, an Initial Rate (Ident. D8) of 8440 and an Initial Rate (Ident. E4) of 7280. This substance also yielded an Initial Rate (Ident. F8) of 3820 and an Initial Rate (Ident. H2) of 9060.

For “Split-CFP S1-10 (Y66W, T205S) (from UniProt P42212 1-214)”, the Final Fluorescence (Ident. G12) was found to be 382, the Final Fluorescence (Ident. H12) was determined as 425, the Initial Rate (Ident. G12) is 3740 and the Initial Rate (Ident. H12) was 3600.

Turning to “Split-CFP plate clone F6 (D19E, D21E, H148D, T205S) (from UniProt P42212 1-214)”, the Final Fluorescence (Ident. F6) was 2910 and the Initial Rate (Ident. F6) turned out to be 10900.

For the substance “Split-YFP S1-10 (C70S, T203Y) (from UniProt P42212 1-214)”, the Green Fluorescence (488/510) (clone F3) stood at 10.5, the Ratio Yellow/Green Fluorescence (clone F3) is 11.4 and the Yellow Fluorescence (510/532) (clone F3) was determined as 120.

As for “Split-YFP S1-10 (R80K, T203Y) (from UniProt P42212 1-214)”, the Green Fluorescence (488/510) (clone H1) was found to be 7.41, the Ratio Yellow/Green Fluorescence (clone H1) turned out to be 18.7 and the Yellow Fluorescence (510/532) (clone H1) amounted to 138.

With “Split-YFP S1-10 (S99F, T203Y, T205S) (from UniProt P42212 1-214)”, the Green Fluorescence (488/510) (clone G11) stood at 7.47, the Ratio Yellow/Green Fluorescence (clone G11) is 18.9 and the Yellow Fluorescence (510/532) (clone G11) worked out at 141.

Turning to “Split-YFP S1-10 (T9N, T65L, T203Y, T205S) (from UniProt P42212 1-214)”, the Green Fluorescence (488/510) (clone C5) came out at 5.07, the Ratio Yellow/Green Fluorescence (clone C5) was determined as 20.9 and the Yellow Fluorescence (510/532) (clone C5) was determined as 106.

As to “Split-YFP S1-10 (T65A, T203Y, T205S) (from UniProt P42212 1-214)”, the Green Fluorescence (488/510) (clone C4) was found to be 7.17, the Ratio Yellow/Green Fluorescence (clone C4) stood at 10.6 and the Yellow Fluorescence (510/532) (clone C4) came out at 76.2.

“Split-YFP S1-10 (T65G, P192H, T203Y, T205S) (from UniProt P42212 1-214)”: the Green Fluorescence (488/510) (clone D3) is 7.15, the Ratio Yellow/Green Fluorescence (clone D3) worked out at 17.9 and the Yellow Fluorescence (510/532) (clone D3) worked out at 128.

With “Split-YFP S1-10 (T65G, S99F, T203Y, T205S) (from UniProt P42212 1-214)”, the Green Fluorescence (488/510) (clone E11) came to 4.51, the Ratio Yellow/Green Fluorescence (clone E11) stood at 22.5 and the Yellow Fluorescence (510/532) (clone E11) came to 101.

In the case of “Split-YFP S1-10 (T65G, T203Y) (from UniProt P42212 1-214)”, the Green Fluorescence (488/510) (clone A9) was 4.5, the Green Fluorescence (488/510) (clone B2) came to 5.85, the Green Fluorescence (488/510) (clone E7) worked out at 6.91 and the Ratio Yellow/Green Fluorescence (clone A9) is 24.3. Further, the Ratio Yellow/Green Fluorescence (clone B2) amounted to 19.5, the Ratio Yellow/Green Fluorescence (clone E7) was found to be 17, the Yellow Fluorescence (510/532) (clone A9) was 109 and the Yellow Fluorescence (510/532) (clone B2) was determined as 114. The same substance displayed a Yellow Fluorescence (510/532) (clone E7) of 117.

Turning to “Split-YFP S1-10 (T65L, V176I, T203Y, T205S) (from UniProt P42212 1-214)”, the Green Fluorescence (488/510) (clone A7) amounted to 2.77, the Ratio Yellow/Green Fluorescence (clone A7) was found to be 28.5 and the Yellow Fluorescence (510/532) (clone A7) came to 79.1.

On to “Split-YFP S1-10 (T203Y) (from UniProt P42212 1-214)”, for which the Green Fluorescence (488/510) (clone A6) came to 7.74, the Green Fluorescence (488/510) (clone A8) is 8.54, the Green Fluorescence (488/510) (clone B3) was determined as 13.9 and the Green Fluorescence (488/510) (clone B4) turned out to be 16. Moreover, the Green Fluorescence (488/510) (clone B6) worked out at 8.08, the Green Fluorescence (488/510) (clone B10) turned out to be 16.1, the Green Fluorescence (488/510) (clone C9) was 17.5 and the Green Fluorescence (488/510) (clone D1) stood at 16.4. The Green Fluorescence (488/510) (clone D2) was 18.5, the Green Fluorescence (488/510) (clone D5) came out at 17.8, the Green Fluorescence (488/510) (clone D7) amounted to 17.4 and the Green Fluorescence (488/510) (clone D9) was 21. Moreover, the Green Fluorescence (488/510) (clone D10) turned out to be 18.2, the Green Fluorescence (488/510) (clone D11) turned out to be 17.1, the Green Fluorescence (488/510) (clone E1) came out at 12.3 and the Green Fluorescence (488/510) (clone E3) was found to be 17.9. The substance further yielded a Green Fluorescence (488/510) (clone E4) of 17.4, a Green Fluorescence (488/510) (clone E6) of 15.4, a Green Fluorescence (488/510) (clone E8) of 22.9 and a Green Fluorescence (488/510) (clone E9) of 23.9. The Green Fluorescence (488/510) (clone F1) was 15.8, the Green Fluorescence (488/510) (clone F6) is 11.5, the Green Fluorescence (488/510) (clone F7) came to 17.7 and the Green Fluorescence (488/510) (clone F9) came to 21.4. This substance also came in with a Green Fluorescence (488/510) (clone F10) of 8.11, a Green Fluorescence (488/510) (clone F11) of 19, a Green Fluorescence (488/510) (clone G9) of 18.6 and a Green Fluorescence (488/510) (clone G10) of 17. Besides, the Green Fluorescence (488/510) (clone H4) was 9.39, the Green Fluorescence (488/510) (clone H5) came to 8.77, the Green Fluorescence (488/510) (clone H9) was found to be 12.4 and the Green Fluorescence (488/510) (clone H10) is 13.1. Besides, the Ratio Yellow/Green Fluorescence (clone A6) turned out to be 18.9, the Ratio Yellow/Green Fluorescence (clone A8) stood at 17.5, the Ratio Yellow/Green Fluorescence (clone B3) is 10.5 and the Ratio Yellow/Green Fluorescence (clone B4) turned out to be 9.71. The Ratio Yellow/Green Fluorescence (clone B6) came out at 13.7, the Ratio Yellow/Green Fluorescence (clone B10) came out at 10.2, the Ratio Yellow/Green Fluorescence (clone C9) was found to be 9.2 and the Ratio Yellow/Green Fluorescence (clone D1) was 9.41. Further, the Ratio Yellow/Green Fluorescence (clone D2) was determined as 8.3, the Ratio Yellow/Green Fluorescence (clone D5) is 8.66, the Ratio Yellow/Green Fluorescence (clone D7) is 8.97 and the Ratio Yellow/Green Fluorescence (clone D9) was 7.45. Besides, the Ratio Yellow/Green Fluorescence (clone D10) worked out at 7.74, the Ratio Yellow/Green Fluorescence (clone D11) is 8.31, the Ratio Yellow/Green Fluorescence (clone E1) is 11.3 and the Ratio Yellow/Green Fluorescence (clone E3) worked out at 8.45. In addition, the Ratio Yellow/Green Fluorescence (clone E4) came to 8.79, the Ratio Yellow/Green Fluorescence (clone E6) was found to be 10.1, the Ratio Yellow/Green Fluorescence (clone E8) worked out at 7.21 and the Ratio Yellow/Green Fluorescence (clone E9) was 6.93. In addition, the Ratio Yellow/Green Fluorescence (clone F1) amounted to 10.1, the Ratio Yellow/Green Fluorescence (clone F6) turned out to be 12.6, the Ratio Yellow/Green Fluorescence (clone F7) was found to be 9.1 and the Ratio Yellow/Green Fluorescence (clone F9) turned out to be 7.71. The Ratio Yellow/Green Fluorescence (clone F10) amounted to 14.3, the Ratio Yellow/Green Fluorescence (clone F11) amounted to 8.74, the Ratio Yellow/Green Fluorescence (clone G9) is 9.14 and the Ratio Yellow/Green Fluorescence (clone G10) amounted to 9.91. Further, the Ratio Yellow/Green Fluorescence (clone H4) was 16.6, the Ratio Yellow/Green Fluorescence (clone H5) stood at 18.4, the Ratio Yellow/Green Fluorescence (clone H9) is 13.5 and the Ratio Yellow/Green Fluorescence (clone H10) worked out at 13.3. The Yellow Fluorescence (510/532) (clone A6) was 146, the Yellow Fluorescence (510/532) (clone A8) was 150, the Yellow Fluorescence (510/532) (clone B3) was found to be 146 and the Yellow Fluorescence (510/532) (clone B4) came out at 155. Further, the Yellow Fluorescence (510/532) (clone B6) was found to be 111, the Yellow Fluorescence (510/532) (clone B10) was determined as 165, the Yellow Fluorescence (510/532) (clone C9) came out at 161 and the Yellow Fluorescence (510/532) (clone D1) was 154. The Yellow Fluorescence (510/532) (clone D2) came out at 154, the Yellow Fluorescence (510/532) (clone D5) was 154, the Yellow Fluorescence (510/532) (clone D7) is 156 and the Yellow Fluorescence (510/532) (clone D9) came to 156. In addition, the Yellow Fluorescence (510/532) (clone D10) stood at 141, the Yellow Fluorescence (510/532) (clone D11) came out at 143, the Yellow Fluorescence (510/532) (clone E1) stood at 139 and the Yellow Fluorescence (510/532) (clone E3) came out at 151. The same substance had a Yellow Fluorescence (510/532) (clone E4) of 153, a Yellow Fluorescence (510/532) (clone E6) of 155, a Yellow Fluorescence (510/532) (clone E8) of 165 and a Yellow Fluorescence (510/532) (clone E9) of 165. Further, the Yellow Fluorescence (510/532) (clone F1) came out at 159, the Yellow Fluorescence (510/532) (clone F6) stood at 144, the Yellow Fluorescence (510/532) (clone F7) was found to be 161 and the Yellow Fluorescence (510/532) (clone F9) was 165. Moreover, the Yellow Fluorescence (510/532) (clone F10) came to 116, the Yellow Fluorescence (510/532) (clone F11) worked out at 166, the Yellow Fluorescence (510/532) (clone G9) was found to be 170 and the Yellow Fluorescence (510/532) (clone G10) was found to be 168. The substance also yielded a Yellow Fluorescence (510/532) (clone H4) of 156, a Yellow Fluorescence (510/532) (clone H5) of 161, a Yellow Fluorescence (510/532) (clone H9) of 168 and a Yellow Fluorescence (510/532) (clone H10) of 175.

With “Split-YFP S1-10 (T203Y, D210V) (from UniProt P42212 1-214)”, the Green Fluorescence (488/510) (clone E10) stood at 21.4, the Ratio Yellow/Green Fluorescence (clone E10) was 7.33 and the Yellow Fluorescence (510/532) (clone E10) is 157.

For the substance “Split-YFP S1-10 (T203Y, Q204E) (from UniProt P42212 1-214)”, the Green Fluorescence (488/510) (clone C6) worked out at 5.1, the Ratio Yellow/Green Fluorescence (clone C6) was found to be 20 and the Yellow Fluorescence (510/532) (clone C6) worked out at 102.

As to “Split-YFP S1-10 (T203Y, Q204H) (from UniProt P42212 1-214)”, the Green Fluorescence (488/510) (clone F8) was 20.2, the Ratio Yellow/Green Fluorescence (clone F8) was 8.16 and the Yellow Fluorescence (510/532) (clone F8) worked out at 165.

As for “Split-YFP S1-10 (T203Y, T205A) (from UniProt P42212 1-214)”, the Green Fluorescence (488/510) (clone A3) was found to be 1.8, the Ratio Yellow/Green Fluorescence (clone A3) came out at 42 and the Yellow Fluorescence (510/532) (clone A3) turned out to be 75.7.

For the substance “Split-YFP S1-10 (Y200F, T203Y) (from UniProt P42212 1-214)”, the Green Fluorescence (488/510) (clone B9) amounted to 14.7, the Ratio Yellow/Green Fluorescence (clone B9) came out at 10.9 and the Yellow Fluorescence (510/532) (clone B9) came to 160.

These data come from patent US20120282643A1.
